The values that follow come from US7732178B2, “Laccase enzymes and their uses” (AB Enzymes Oy, priority 2004, dated 2010).

The nature of this experiment: Stain removal, tea soiling. Also on record: key to Tea L* / Tea a* / Tea b*: CIE L*a*b* color coordinates from reflectance. The note with it: for Tea L* / Tea a* / Tea b*: 60 min, pH 6; for removal of tea soiling with the mediator: CtLcc1 at 60° C., TaLcc2 at 50° C. The protocol: Laccases CtLcc1, TaLcc2, TaLcc4 and Denilite II Base (Example 7) were tested for their ability to remove stains. The following artificially soiled test cloths were used: grass soiling (Art.164, EMPA Testmaterialen, Germany), tea soiling (Art. 167, EMPA Testmaterialen, Germany). The fabric was cut in 5.8×5.8 cm swatches. Laccase treatments were performed in LP-2 Launder Ometer as follows. About 5 g of soiled fabrics were loaded into 1.2 liter containers containing 150 ml Mc Ilvaine's citrate phosphate buffer pH 6 and the containers were temperated. Enzyme with or without the mediator (methyl syringate, DeniLite II Assist, Novozymes) was added as laccase activity units (Example 7). Enzyme was dosed 200 nkat/g and the mediator 10 mg/g on the weight of fabric, except at 40° C. dosages of 20 nkat/g and 2 mg/g were also used. The Launder Ometer was run at 40, 50 or 60° C. and pH 6 for 60 min. After that the swatches were carefully rinsed under running water and in shake flasks containing warm water and dried in the air.
The stain removal effect was evaluated by measuring the colour as reflectance values using L*a*b* color space coordinates (Example 7). The colour of the swatches was measured before and after the laccase treatment.

[1] abbreviates: 40° C., enzyme 20 nkat/g + mediator 2 mg/g (Mediator only: 0 nkat/g).
[2] abbreviates: 40° C., enzyme 200 nkat/g + mediator 10 mg/g (Mediator only: 0 nkat/g), RF5571.
Setting [3] is: 40° C., enzyme 200 nkat/g + mediator 10 mg/g (Mediator only: 0 nkat/g), RF5573.
The mark [4] stands for this setting: 40° C., enzyme 200 nkat/g, mediator 0 mg/g.
Setting [5] is: 50° C., enzyme 200 nkat/g + mediator 10 mg/g (Mediator only: 0 nkat/g).
[6] abbreviates: 40° C., enzyme 200 nkat/g + mediator 10 mg/g (Mediator only: 0 nkat/g).
Where [7] appears, read: 60° C., enzyme 200 nkat/g + mediator 10 mg/g (Mediator only: 0 nkat/g).
[8] abbreviates: 60° C., enzyme 200 nkat/g, mediator 0 mg/g.

B1: TaLcc2: Thielavia arenaria ALKO 4197 laccase, SEQ ID NO: 41, produced in Trichoderma reesei (protein)
chain: MLTETLKSRNMLQSILALLATALGSSAFAIPELPEVSLQPRQACENTATSRQCWGDLSIDTNYYEVLPSTGRPPQEYWLSVVEGPCAPDGYNRTCMTFNGTVPGPTLFADWGDELVIHVTNNMVNNGTAIHWHGIRMLNNTLNDGVPGVTQCAIAPGESMTYRFNVTQYGSTWYHSHFSLQYAEGLFGGMILRGPSTANWDEDLGVLFLQDWSHVEAFTRWHEAKAGFPPSLDGGLINGTNTFDCSTLSPTDPKCTGNGKKFETVFEPGKKYLIRLINVAIDGVFQFSIDGHSLTVIATDLVPIVPYTTDSVQITIGQRYDIIVEANATPGNYWMRADWVTACVTNDHPEHMTGIVRYDASSIDPPTSESNVTKTSSCLGEPNEKTIPHLSLDVTNIGGTNVEELSFDTTSGDYFQWTLNTSSLVLDWGNPTMARIFNGDAIFPTEYNVVAVNKTGTGPEWTVLVIQDQSNLPIAHPIHLHGHDFWVLAAEEGVFNGNISSFNTRNPARRDVATLPGRGYLAIAFQIDNPGTWLTHCHIAWHASQGLSLEFVESQSEIVTDEVSRGVFNDVCASWRAHDPLWEQEDSGI
modifications: Thielavia arenaria ALKO4197; (1)..(589) Deduced amino acid sequence of Thielavia arenaria ALKO4197 TaLacc2
For the molecule B1, the “removal of tea soiling with the mediator” value is on record as “effective”. In addition, under setting [1], the “Tea L*” value is 75.61, the “Tea a*” value is 5.24 and the “Tea b*” value came to 23.66. Under setting [2], the “Tea L*” value was 77.28, the “Tea a*” value was found to be 4.36 and the “Tea b*” value is given as 24.32. Further, under setting [3], the “Tea L*” value is reported as 77.04, the “Tea a*” value is reported as 4.41 and the “Tea b*” value was determined as 24.36. Further, under setting [4], the “Tea L*” value is reported as 76.09, the “Tea a*” value is reported as 5.37 and the “Tea b*” value amounted to 22.59. Further, under setting [5], the “Tea L*” value was determined as 77.73, the “Tea a*” value is given as 3.99 and the “Tea b*” value stood at 22.89.

B2: CtLcc1: Chaetomium thermophilum ALKO 4265 laccase, SEQ ID NO: 47, produced in Trichoderma reesei (protein)
chain: MKFLTYATALLGALTAVVGAIPTRSGTKKKYIRDGPGPCHTPSNRACWAPGFDINTDYEVNTPNTGVTRNYTLTLTEEDNWTGPDGVVKEKIMLVNGKTLGPTIEANWGDWIEVKVINNLLTNGTSIHWHGIHQKGSNLHDGANGVTECPIPPNGGQRTYRFRAQQYGTSWYHSHFSAQYGNGIVGPIVIHGPASLPYDIDLGPFPLTDYYYKSADELVRHTQNNGPPFSDNVLFNGTGVHPQTGHGQYAKVTLTPGKRHRLRIINMSTENHFQVSLVGHQFTVIAADMVPVHSYTTDSLFLAVGQRYDVTIDASQTPGNYWFNVTFGGGFACGGSFNPNPAAIFHYEGAPDALPTDPGVPPRDHNCLDTLDLVPVVPRNVQVNQFVKKPENTLPVELSLGGTPLFVWKVNGSAIDVDWGNPVLQYVMDRNTSYRQADNIVEVNGVNQWTYWLIENDPNGAFSLPHPMHLHGHDFLIVGRSPDVPPGSNQRYNFDPATDIYRLRGQNPTRRDVAMLPAGGWLLLAFLTDNPGAWLFHCHIAWHVSGGLSVDFLERPNDLRNSILQHDKDEFNRVCNEWRTYWPNSPHPKIDSGLKHRWVEESEWLVR
modifications: Chaetomium thermophilum ALKO4265; (1)..(607) Deduced amino acid sequence of Chaetomium thermophilum ALKO4265 CtLcc1
As to B2, the “removal of tea soiling with the mediator” value was “effective”. Under setting [1], the “Tea L*” value came out at 76.34, the “Tea a*” value was determined as 5.10 and the “Tea b*” value came out at 23.89. Further, under setting [6], the “Tea L*” value worked out at 77.70, the “Tea a*” value is given as 4.26 and the “Tea b*” value came to 24.50. Also, under setting [4], the “Tea L*” value is given as 76.22, the “Tea a*” value stood at 5.37 and the “Tea b*” value is reported as 22.68. Under setting [7], the “Tea L*” value was found to be 79.76, the “Tea a*” value is recorded as 3.52 and the “Tea b*” value came to 22.16. Also, under setting [8], the “Tea L*” value was 77.10, the “Tea a*” value is 4.84 and the “Tea b*” value stood at 21.10.
